Results taken from paper PMC9109600.

Substrate: Nc1nc2nc[nH]c2c(=O)[nH]1
Assay: purified protein
Conditions: zinc active site

B1: Guanine deaminase (GDA) (Homo sapiens) (protein)
chain: MCAAQMPPLAHIFRGTFVHSTWTCPMEVLRDHLLGVSDSGKIVFLEEASQQEKLAKEWCFKPCEIRELSHHEFFMPGLVDTHIHASQYSFAGSSIDLPLLEWLTKYTFPAEHRFQNIDFAEEVYTRVVRRTLKNGTTTACYFATIHTDSSLLLADITDKFGQRAFVGKVCMDLNDTFPEYKETTEESIKETERFVSEMLQKNYSRVKPIVTPRFSLSCSETLMGELGNIAKTRDLHIQSHISENRDEVEAVKNLYPSYKNYTSVYDKNNLLTNKTVMAHGCYLSAEELNVFHERGASIAHCPNSNLSLSSGFLNVLEVLKHEVKIGLGTDVAGGYSYSMLDAIRRAVMVSNILLINKVNEKSLTLKEVFRLATLGGSQALGLDGEIGNFEVGKEFDAILINPKASDSPIDLFYGDFFGDISEAVIQKFLYLGDDRNIEEVYVGGKQVVPFSSSV
Question: Which Km does the source give for B1 here?
Answer: Its Km is 12 ± 9 µM.
